B1: Coiled-coil alpha-helical rod protein 1 (Homo sapiens), Q8TD31 (parent)
chain: MFPPSGSTGLIPPSHFQARPLSTLPRMAPTWLSDIPLVQPPGHQDVSERRLDTQRPQVTMWERDVSSDRQEPGRRGRSWGLEGSQALSQQAEVIVRQLQELRRLEEEVRLLRETSLQQKMRLEAQAMELEALARAEKAGRAEAEGLRAALAGAEVVRKNLEEGSQRELEEVQRLHQEQLSSLTQAHEEALSSLTSKAEGLEKSLSSLETRRAGEAKELAEAQREAELLRKQLSKTQEDLEAQVTLVENLRKYVGEQVPSEVHSQTWELERQKLLETMQHLQEDRDSLHATAELLQVRVQSLTHILALQEEELTRKVQPSDSLEPEFTRKCQSLLNRWREKVFALMVQLKAQELEHSDSVKQLKGQVASLQEKVTSQSQEQAILQRSLQDKAAEVEVERMGAKGLQLELSRAQEARRRWQQQTASAEEQLRLVVNAVSSSQIWLETTMAKVEGAAAQLPSLNNRLSYAVRKVHTIRGLIARKLALAQLRQESCPLPPPVTDVSLELQQLREERNRLDAELQLSARLIQQEVGRAREQGEAERQQLSKVAQQLEQELQQTQESLASLGLQLEVARQGQQESTEEAASLRQELTQQQELYGQALQEKVAEVETRLREQLSDTERRLNEARREHAKAVVSLRQIQRRAAQEKERSQELRRLQEEARKEEGQRLARRLQELERDKNLMLATLQQEGLLSRYKQQRLLTVLPSLLDKKKSVVSSPRPPECSASAPVAAAVPTRESIKGSLSVLLDDLQDLSEAISKEEAVCQGDNLDRCSSSNPQMSS
partner: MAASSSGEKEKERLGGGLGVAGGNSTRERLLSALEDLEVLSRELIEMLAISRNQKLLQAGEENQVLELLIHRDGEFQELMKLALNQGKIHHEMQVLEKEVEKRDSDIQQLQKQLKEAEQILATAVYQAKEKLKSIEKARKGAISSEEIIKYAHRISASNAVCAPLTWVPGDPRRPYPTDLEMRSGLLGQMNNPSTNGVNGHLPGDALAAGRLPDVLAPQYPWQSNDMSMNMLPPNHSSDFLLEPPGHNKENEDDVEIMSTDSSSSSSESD
B2: TBC1 domain family member 22B (Homo sapiens), Q9NU19 (parent)
chain: MAAENSKQFWKRSAKLPGSIQPVYGAQHPPLDPRLTKNFIKERSKVNTVPLKNKKASSFHEFARNTSDAWDIGDDEEEDFSSPSFQTLNSKVALATAAQVLENHSKLRVKPERSQSTTSDVPANYKVIKSSSDAQLSRNSSDTCLRNPLHKQQSLPLRPIIPLVARISDQNASGAPPMTVREKTRLEKFRQLLSSQNTDLDELRKCSWPGVPREVRPITWRLLSGYLPANTERRKLTLQRKREEYFGFIEQYYDSRNEEHHQDTYRQIHIDIPRTNPLIPLFQQPLVQEIFERILFIWAIRHPASGYVQGINDLVTPFFVVFLSEYVEEDVENFDVTNLSQDMLRSIEADSFWCMSKLLDGIQDNYTFAQPGIQKKVKALEELVSRIDEQVHNHFRRYEVEYLQFAFRWMNNLLMRELPLRCTIRLWDTYQSEPEGFSHFHLYVCAAFLIKWRKEILDEEDFQGLLMLLQNLPTIHWGNEEIGLLLAEAYRLKYMFADAPNHYRR
partner: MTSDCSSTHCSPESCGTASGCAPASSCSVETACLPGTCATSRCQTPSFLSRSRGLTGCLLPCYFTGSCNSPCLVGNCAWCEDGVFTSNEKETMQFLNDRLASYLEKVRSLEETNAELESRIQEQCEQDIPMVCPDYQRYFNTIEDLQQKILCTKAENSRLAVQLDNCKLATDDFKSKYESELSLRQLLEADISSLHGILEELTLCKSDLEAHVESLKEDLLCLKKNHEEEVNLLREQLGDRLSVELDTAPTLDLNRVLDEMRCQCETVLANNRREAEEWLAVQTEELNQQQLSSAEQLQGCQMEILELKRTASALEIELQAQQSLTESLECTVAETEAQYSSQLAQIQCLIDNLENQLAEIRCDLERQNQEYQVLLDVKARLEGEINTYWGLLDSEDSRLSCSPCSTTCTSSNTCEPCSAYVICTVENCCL
B3: Centrosomal protein POC5 (Homo sapiens), Q8NA72 (parent)
chain: MSSDEEKYSLPVVQNDSSRGSSVSSNLQEEYEELLHYAIVTPNIEPCASQSSHPKGELVPDVRISTIHDILHSQGNNSEVRETAIEVGKGCDFHISSHSKTDESSPVLSPRKPSHPVMDFFSSHLLADSSSPATNSSHTDAHEILVSDFLVSDENLQKMENVLDLWSSGLKTNIISELSKWRLNFIDWHRMEMRKEKEKHAAHLKQLCNQINELKELQKTFEISIGRKDEVISSLSHAIGKQKEKIELMRTFFHWRIGHVRARQDVYEGKLADQYYQRTLLKKVWKVWRSVVQKQWKDVVERACQARAEEVCIQISNDYEAKVAMLSGALENAKAEIQRMQHEKEHFEDSMKKAFMRGVCALNLEAMTIFQNRNDAGIDSTNNKKEEYGPGVQGKEHSAHLDPSAPPMPLPVTSPLLPSPPAAVGGASATAVPSAASMTSTRAASASSVHVPVSALGAGSAATAASEEMYVPRVVTSAQQKAGRTITARITGRCDFASKNRISSSLAIMGVSPPMSSVVVEKHHPVTVQTIPQATAAKYPRTIHPESSTSASRSLGTRSAHTQSLTSVHSIKVVD
partner: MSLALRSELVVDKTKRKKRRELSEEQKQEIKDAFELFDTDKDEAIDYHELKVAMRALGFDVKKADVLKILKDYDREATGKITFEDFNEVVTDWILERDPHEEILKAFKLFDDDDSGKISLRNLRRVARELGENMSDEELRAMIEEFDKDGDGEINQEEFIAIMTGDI
B4: E3 ubiquitin-protein ligase LNX (Homo sapiens), Q8TBB1 (parent)
chain: MNQPESANDPEPLCAVCGQAHSLEENHFYSYPEEVDDDLICHICLQALLDPLDTPCGHTYCTLCLTNFLVEKDFCPMDRKPLVLQHCKKSSILVNKLLNKLLVTCPFREHCTQVLQRCDLEHHFQTSCKGASHYGLTKDRKRRSQDGCPDGCASLTATAPSPEVSAAATISLMTDEPGLDNPAYVSSAEDGQPAISPVDSGRSNRTRARPFERSTIRSRSFKKINRALSVLRRTKSGSAVANHADQGRENSENTTAPEVFPRLYHLIPDGEITSIKINRVDPSESLSIRLVGGSETPLVHIIIQHIYRDGVIARDGRLLPGDIILKVNGMDISNVPHNYAVRLLRQPCQVLWLTVMREQKFRSRNNGQAPDAYRPRDDSFHVILNKSSPEEQLGIKLVRKVDEPGVFIFNVLDGGVAYRHGQLEENDRVLAINGHDLRYGSPESAAHLIQASERRVHLVVSRQVRQRSPDIFQEAGWNSNGSWSPGPGERSNTPKPLHPTITCHEKVVNIQKDPGESLGMTVAGGASHREWDLPIYVISVEPGGVISRDGRIKTGDILLNVDGVELTEVSRSEAVALLKRTSSSIVLKALEVKEYEPQEDCSSPAALDSNHNMAPPSDWSPSWVMWLELPRCLYNCKDIVLRRNTAGSLGFCIVGGYEEYNGNKPFFIKSIVEGTPAYNDGRIRCGDILLAVNGRSTSGMIHACLARLLKELKGRITLTIVSWPGTFL
partner: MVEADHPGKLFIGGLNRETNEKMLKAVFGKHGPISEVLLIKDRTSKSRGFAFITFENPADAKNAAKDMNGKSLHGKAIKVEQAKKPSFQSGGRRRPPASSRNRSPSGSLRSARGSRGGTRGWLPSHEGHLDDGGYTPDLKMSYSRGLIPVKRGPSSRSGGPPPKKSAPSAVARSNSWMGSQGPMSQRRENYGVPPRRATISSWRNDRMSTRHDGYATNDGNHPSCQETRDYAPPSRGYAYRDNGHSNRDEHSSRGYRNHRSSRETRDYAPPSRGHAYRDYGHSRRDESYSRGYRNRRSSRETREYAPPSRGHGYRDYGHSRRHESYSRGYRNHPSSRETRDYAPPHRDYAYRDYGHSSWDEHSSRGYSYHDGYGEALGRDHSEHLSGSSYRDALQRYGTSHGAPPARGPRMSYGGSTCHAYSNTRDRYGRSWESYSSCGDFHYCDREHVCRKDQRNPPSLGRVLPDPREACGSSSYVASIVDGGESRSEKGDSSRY
B5: E3 ubiquitin-protein ligase LNX (Homo sapiens), Q8TBB1 (parent)
chain: B4 chain
partner: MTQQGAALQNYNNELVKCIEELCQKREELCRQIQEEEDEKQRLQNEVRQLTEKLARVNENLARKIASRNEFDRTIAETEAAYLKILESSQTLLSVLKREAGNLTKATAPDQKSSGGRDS
B6: Inactive peptidyl-prolyl cis-trans isomerase FKBP6 (Homo sapiens), O75344 (parent)
chain: MGGSALNQGVLEGDDAPGQSLYERLSQRMLDISGDRGVLKDVIREGAGDLVAPDASVLVKYSGYLEHMDRPFDSNYFRKTPRLMKLGEDITLWGMELGLLSMRRGELARFLFKPNYAYGTLGCPPLIPPNTTVLFEIELLDFLDCAESDKFCALSAEQQDQFPLQKVLKVAATEREFGNYLFRQNRFYDAKVRYKRALLLLRRRSAPPEEQHLVEAAKLPVLLNLSFTYLKLDRPTIALCYGEQALIIDQKNAKALFRCGQACLLLTEYQKARDFLVRAQKEQPFNHDINNELKKLASCYRDYVDKEKEMWHRMFAPCGDGSTAGES
partner: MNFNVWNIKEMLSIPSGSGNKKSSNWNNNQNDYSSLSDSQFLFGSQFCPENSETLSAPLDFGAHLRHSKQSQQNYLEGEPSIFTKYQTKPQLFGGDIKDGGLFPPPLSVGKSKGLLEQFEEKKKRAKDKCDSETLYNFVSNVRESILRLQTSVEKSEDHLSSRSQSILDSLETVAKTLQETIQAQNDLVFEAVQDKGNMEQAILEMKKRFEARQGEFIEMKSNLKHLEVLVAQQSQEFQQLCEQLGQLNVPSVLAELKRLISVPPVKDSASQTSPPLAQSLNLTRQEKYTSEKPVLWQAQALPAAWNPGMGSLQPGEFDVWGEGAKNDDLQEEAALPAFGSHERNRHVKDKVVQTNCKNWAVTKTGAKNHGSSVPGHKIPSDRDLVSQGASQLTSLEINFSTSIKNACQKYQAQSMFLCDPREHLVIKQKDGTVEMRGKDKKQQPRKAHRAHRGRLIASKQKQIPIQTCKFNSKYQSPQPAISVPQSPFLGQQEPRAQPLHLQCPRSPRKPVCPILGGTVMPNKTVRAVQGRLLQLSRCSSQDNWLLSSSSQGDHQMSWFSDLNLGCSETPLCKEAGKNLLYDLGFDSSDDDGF
B7: Coiled-coil alpha-helical rod protein 1 (Homo sapiens), Q8TD31 (parent)
chain: B1 chain
partner: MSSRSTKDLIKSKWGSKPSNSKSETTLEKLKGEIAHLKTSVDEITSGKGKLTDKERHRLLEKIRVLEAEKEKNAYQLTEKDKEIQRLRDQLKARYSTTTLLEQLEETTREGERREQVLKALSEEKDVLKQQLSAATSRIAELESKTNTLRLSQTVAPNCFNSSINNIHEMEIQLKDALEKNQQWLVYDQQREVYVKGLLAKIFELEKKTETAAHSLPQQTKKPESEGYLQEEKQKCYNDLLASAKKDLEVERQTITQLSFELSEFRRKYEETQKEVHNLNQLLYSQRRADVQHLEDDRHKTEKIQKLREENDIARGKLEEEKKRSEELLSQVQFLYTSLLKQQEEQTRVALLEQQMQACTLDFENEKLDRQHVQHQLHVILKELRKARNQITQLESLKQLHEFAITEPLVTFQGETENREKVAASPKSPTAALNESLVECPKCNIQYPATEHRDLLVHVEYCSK
B8: E3 ubiquitin-protein ligase LNX (Homo sapiens), Q8TBB1 (parent)
chain: B4 chain
partner: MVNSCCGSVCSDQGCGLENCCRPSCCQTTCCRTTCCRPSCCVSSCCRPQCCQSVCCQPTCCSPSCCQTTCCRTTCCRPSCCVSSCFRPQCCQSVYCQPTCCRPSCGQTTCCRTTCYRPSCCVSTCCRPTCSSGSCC

Variants of: B1
Conditions: with med4_human MED4, Q9NPJ6

**Q.** With W337R as the variant, how does the “effect of a mutation on the interaction” value read?
**A.** The value was “with no effect”.

Variants of: B2
Conditions: with KRT40, Q6A162

**Q.** Which “effect of a mutation on the interaction” value does the source give for A349T here?
**A.** The value was “disrupting interaction strength”.

Variants of: B3
Conditions: with cetn3_human CETN3, O15182

**Q.** Which “effect of a mutation on the interaction” value does the source give for M469T here?
**A.** The value was “with no effect”.

Variants of: B4
Conditions: with rby1a_human RBMY1A1, P0DJD3

**Q.** For E295K, which “effect of a mutation on the interaction” value is on record?
**A.** Its value is “disrupting interaction strength”.

Variants of: B5
Conditions: with ssna1_human SSNA1, O43805

**Q.** Which “effect of a mutation on the interaction” value does the source give for E295K here?
**A.** The value was “disrupting interaction strength”.

Variants of: B6
Conditions: with iho1_human IHO1, Q8IYA8

**Q.** How did the “effect of a mutation on the interaction” value turn out when L246F was run?
**A.** The value was “disrupting interaction strength”.

Variants of: B7
Conditions: with cep55_human CEP55, Q53EZ4

**Q.** How did the “effect of a mutation on the interaction” value turn out when W337R was run?
**A.** The value was “disrupting interaction strength”.

Variants of: B8
Conditions: with kra42_human KRTAP4-2, Q9BYR5

**Q.** For E295K, which “effect of a mutation on the interaction” value is on record?
**A.** Its value is “disrupting interaction strength”.
